Measured values taken from paper PMC5042876.

Substrate: CC1(C)C[C@H]2C=C(C(=O)O)[C@@H]3COC(=O)[C@]4(CO4)[C@]23C1
Assay: purified protein, by the assay type
Details: 30 °C

B1: wild-type PntM (Streptomyces arenae) (protein)
chain: MTDLPRLPFDNPDIMGIAPQMLALQKEGPIARVGTAGEDAWLVTRYDEVRTLLADRRLRLSNPNPQPSAKSAARAFMVALMAGDDHETEPARHAQMRSLLIPRFSTRRLRLMKTRIEHHVDELLDQLAASAPPVDLHRVLSFRLPTMVVCDLLGVPLADRERFGQWARGTFDQSDNEHSANTFQQVVDYMLELVARKRVEPGDDILSELIAEKDGALSDADIAHLGNAVLLFGYETTIVRIDLGTLLLLRNPVQRAQLAEDPGLAPAAVEEILRLGVGGKGSNALIPRYAHGDITVGETVIRTGDAVMLAIGAANYDDRAFPDGGLFDLTRVRPRSHLAFGHGARHCIGRTLARIELTAVFERLFRRLPDLRLAVPEESLRWQEHRITGGFDEIPVTF
Km (other: Wild-type, pH 8.0): 36 ± 14 µM
kcat (other: Wild-type, pH 8.0): 0.03 s⁻¹
kcat/Km (other: Wild-type, pH 8.0): 833 M⁻¹ s⁻¹

B2: PntM F232A (Streptomyces arenae; F232A) (protein)
chain: MTDLPRLPFDNPDIMGIAPQMLALQKEGPIARVGTAGEDAWLVTRYDEVRTLLADRRLRLSNPNPQPSAKSAARAFMVALMAGDDHETEPARHAQMRSLLIPRFSTRRLRLMKTRIEHHVDELLDQLAASAPPVDLHRVLSFRLPTMVVCDLLGVPLADRERFGQWARGTFDQSDNEHSANTFQQVVDYMLELVARKRVEPGDDILSELIAEKDGALSDADIAHLGNAVLLAGYETTIVRIDLGTLLLLRNPVQRAQLAEDPGLAPAAVEEILRLGVGGKGSNALIPRYAHGDITVGETVIRTGDAVMLAIGAANYDDRAFPDGGLFDLTRVRPRSHLAFGHGARHCIGRTLARIELTAVFERLFRRLPDLRLAVPEESLRWQEHRITGGFDEIPVTF
Km (other: F232A, pH 8.0, n=1): 43 ± 5 µM
kcat (other: F232A, pH 8.0, n=1): 0.000583 s⁻¹
kcat/Km (other: F232A, pH 8.0, n=1): 13.7 M⁻¹ s⁻¹

B3: PntM M77S (Streptomyces arenae; M77S) (protein)
chain: MTDLPRLPFDNPDIMGIAPQMLALQKEGPIARVGTAGEDAWLVTRYDEVRTLLADRRLRLSNPNPQPSAKSAARAFSVALMAGDDHETEPARHAQMRSLLIPRFSTRRLRLMKTRIEHHVDELLDQLAASAPPVDLHRVLSFRLPTMVVCDLLGVPLADRERFGQWARGTFDQSDNEHSANTFQQVVDYMLELVARKRVEPGDDILSELIAEKDGALSDADIAHLGNAVLLFGYETTIVRIDLGTLLLLRNPVQRAQLAEDPGLAPAAVEEILRLGVGGKGSNALIPRYAHGDITVGETVIRTGDAVMLAIGAANYDDRAFPDGGLFDLTRVRPRSHLAFGHGARHCIGRTLARIELTAVFERLFRRLPDLRLAVPEESLRWQEHRITGGFDEIPVTF
Km (other: M77S, pH 8.0): 19 ± 4 µM
kcat (other: M77S, pH 8.0): 0.000317 s⁻¹
kcat/Km (other: M77S, pH 8.0): 16.7 M⁻¹ s⁻¹

B4: PntM F232L (Streptomyces arenae; F232L) (protein)
chain: MTDLPRLPFDNPDIMGIAPQMLALQKEGPIARVGTAGEDAWLVTRYDEVRTLLADRRLRLSNPNPQPSAKSAARAFMVALMAGDDHETEPARHAQMRSLLIPRFSTRRLRLMKTRIEHHVDELLDQLAASAPPVDLHRVLSFRLPTMVVCDLLGVPLADRERFGQWARGTFDQSDNEHSANTFQQVVDYMLELVARKRVEPGDDILSELIAEKDGALSDADIAHLGNAVLLLGYETTIVRIDLGTLLLLRNPVQRAQLAEDPGLAPAAVEEILRLGVGGKGSNALIPRYAHGDITVGETVIRTGDAVMLAIGAANYDDRAFPDGGLFDLTRVRPRSHLAFGHGARHCIGRTLARIELTAVFERLFRRLPDLRLAVPEESLRWQEHRITGGFDEIPVTF
Km (other: F232L, pH 8.0): 12.0 ± 3 µM
kcat (other: F232L, pH 8.0): 0.0015 s⁻¹
kcat/Km (other: F232L, pH 8.0): 125 M⁻¹ s⁻¹

B5: PntM M81C-BME (Streptomyces arenae; M81C) (protein)
chain: MTDLPRLPFDNPDIMGIAPQMLALQKEGPIARVGTAGEDAWLVTRYDEVRTLLADRRLRLSNPNPQPSAKSAARAFMVALCAGDDHETEPARHAQMRSLLIPRFSTRRLRLMKTRIEHHVDELLDQLAASAPPVDLHRVLSFRLPTMVVCDLLGVPLADRERFGQWARGTFDQSDNEHSANTFQQVVDYMLELVARKRVEPGDDILSELIAEKDGALSDADIAHLGNAVLLFGYETTIVRIDLGTLLLLRNPVQRAQLAEDPGLAPAAVEEILRLGVGGKGSNALIPRYAHGDITVGETVIRTGDAVMLAIGAANYDDRAFPDGGLFDLTRVRPRSHLAFGHGARHCIGRTLARIELTAVFERLFRRLPDLRLAVPEESLRWQEHRITGGFDEIPVTF
Km (other: M81C-BME, pH 8.0): 280 ± 110 µM
kcat (other: M81C-BME, pH 8.0): 0.00142 s⁻¹
kcat/Km (other: M81C-BME, pH 8.0): 5 M⁻¹ s⁻¹

B6: PntM M81A (Streptomyces arenae; M81A) (protein)
chain: MTDLPRLPFDNPDIMGIAPQMLALQKEGPIARVGTAGEDAWLVTRYDEVRTLLADRRLRLSNPNPQPSAKSAARAFMVALAAGDDHETEPARHAQMRSLLIPRFSTRRLRLMKTRIEHHVDELLDQLAASAPPVDLHRVLSFRLPTMVVCDLLGVPLADRERFGQWARGTFDQSDNEHSANTFQQVVDYMLELVARKRVEPGDDILSELIAEKDGALSDADIAHLGNAVLLFGYETTIVRIDLGTLLLLRNPVQRAQLAEDPGLAPAAVEEILRLGVGGKGSNALIPRYAHGDITVGETVIRTGDAVMLAIGAANYDDRAFPDGGLFDLTRVRPRSHLAFGHGARHCIGRTLARIELTAVFERLFRRLPDLRLAVPEESLRWQEHRITGGFDEIPVTF
Km (other: M81A, pH 8.0): 37 ± 6 µM

B7: PntM M81C (Streptomyces arenae; M81C) (protein)
chain: MTDLPRLPFDNPDIMGIAPQMLALQKEGPIARVGTAGEDAWLVTRYDEVRTLLADRRLRLSNPNPQPSAKSAARAFMVALCAGDDHETEPARHAQMRSLLIPRFSTRRLRLMKTRIEHHVDELLDQLAASAPPVDLHRVLSFRLPTMVVCDLLGVPLADRERFGQWARGTFDQSDNEHSANTFQQVVDYMLELVARKRVEPGDDILSELIAEKDGALSDADIAHLGNAVLLFGYETTIVRIDLGTLLLLRNPVQRAQLAEDPGLAPAAVEEILRLGVGGKGSNALIPRYAHGDITVGETVIRTGDAVMLAIGAANYDDRAFPDGGLFDLTRVRPRSHLAFGHGARHCIGRTLARIELTAVFERLFRRLPDLRLAVPEESLRWQEHRITGGFDEIPVTF
Km (other: M81C, pH 8.0): 19 ± 3 µM
kcat (other: M81C, pH 8.0): 0.00153 s⁻¹
kcat/Km (other: M81C, pH 8.0): 81.7 M⁻¹ s⁻¹
